Two molecules from publication PMC6795808, “N6-methyladenosine modification of circNSUN2 facilitates cytoplasmic export and stabilizes HMGA2 to promote colorectal liver metastasis” can be followed below.

The target of data set [1] is IGF2BP2 WT (UniProt Q9Y6M1 1-599). The data set can be described thus: EMSA; dose-dependent; confirmed by supershift; LightShift Chemiluminescent RNA EMSA kit binding buffer (composition not stated), 30 min, room temperature; 6% native PAGE, 0.5x TBE; supershift preincubation with antibody 20 min at 0 C. The note with it: protein: recombinant; tags: FLAG; label: 3'-biotin.
IGF2BP2 WT, sequence (Q9Y6M1 whole entry): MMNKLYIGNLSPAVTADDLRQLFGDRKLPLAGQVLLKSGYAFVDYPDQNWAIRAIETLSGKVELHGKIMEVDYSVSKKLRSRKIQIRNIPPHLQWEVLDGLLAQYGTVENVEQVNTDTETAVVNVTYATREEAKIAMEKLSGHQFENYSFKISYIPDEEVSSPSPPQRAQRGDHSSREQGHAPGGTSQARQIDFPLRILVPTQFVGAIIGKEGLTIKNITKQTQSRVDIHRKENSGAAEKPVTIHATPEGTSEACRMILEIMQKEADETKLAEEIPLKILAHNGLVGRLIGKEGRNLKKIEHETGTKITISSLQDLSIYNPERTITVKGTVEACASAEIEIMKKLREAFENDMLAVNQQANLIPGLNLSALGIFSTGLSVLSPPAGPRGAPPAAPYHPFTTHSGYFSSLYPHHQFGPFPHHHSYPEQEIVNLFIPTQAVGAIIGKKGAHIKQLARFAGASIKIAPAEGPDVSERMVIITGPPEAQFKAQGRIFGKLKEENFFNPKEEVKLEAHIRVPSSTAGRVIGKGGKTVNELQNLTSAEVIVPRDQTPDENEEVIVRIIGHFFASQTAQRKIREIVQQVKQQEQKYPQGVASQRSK

The target of data set [2] is YTHDC1 WT (UniProt Q96MU7 1-727). In words: EMSA; LightShift Chemiluminescent RNA EMSA kit binding buffer (composition not stated), 30 min, room temperature; 6% native PAGE, 0.5x TBE; supershift preincubation with antibody 20 min at 0 C. The note with it: protein: recombinant; tags: FLAG; label: 3'-biotin. (In general: A gel shift assay detects complexes by their altered migration in electrophoresis.)

B1: circNSUN2 wild type (IGF2BP2 probe) (ssRNA)
RNA: CCUCAUCAUAAGGUAUCCUG
B1: the binding result in data set [1] is given as “binds”.

B2: circNSUN2-m6A wild type (ssRNA)
RNA: AUAAGGUAUCCUGAAGAACU
modifications: m6A not marked in the printed sequence; whether A18 is methylated in the probe is unclear
For the molecule B2, in data set [2], the binding result is on record as “binds”.
